The source of these data is patent US20150183883A1 (Genentech, published 2015).

This test has as its target T1, endothelin B receptor (ETBR) on the surface of UACC-257X2.2 melanoma cells (human, UniProt P24530 27-442).
T1 construct: Endogenous ETBR on UACC-257X2.2 melanoma cells (parental and resistant lines); also called EDNRB; EDNBR
T1 sequence: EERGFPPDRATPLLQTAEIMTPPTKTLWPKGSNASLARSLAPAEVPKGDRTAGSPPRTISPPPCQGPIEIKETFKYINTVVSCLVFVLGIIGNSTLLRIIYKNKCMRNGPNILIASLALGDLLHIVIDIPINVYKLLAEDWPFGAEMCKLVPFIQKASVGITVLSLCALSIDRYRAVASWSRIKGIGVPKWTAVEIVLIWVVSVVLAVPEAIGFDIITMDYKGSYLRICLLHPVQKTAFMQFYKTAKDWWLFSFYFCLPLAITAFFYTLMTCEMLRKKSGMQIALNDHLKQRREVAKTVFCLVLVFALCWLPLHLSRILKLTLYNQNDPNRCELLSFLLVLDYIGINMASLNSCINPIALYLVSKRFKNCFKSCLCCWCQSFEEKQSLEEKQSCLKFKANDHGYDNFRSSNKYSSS
Kind of test: flow cytometry (FACS) on parental and resistant UACC-257X2.2 cells. The procedure:
Expression of ETBR on the surface of the in vivo- and in vitro-derived resistant UACC-257X2.2 cells and the parental UACC-257X2.2 cells was then determined by FACS.
(In general: In flow cytometry, cells or beads pass a laser one at a time.)

B1: ch5E9 (antibody, human IgG1, kappa, V domains shown)
VH: QVQLLQSGAELARPGASVKLSCKASGYTFTSYWMQWVKQRPGQGLEWIGTIYPGDGDTSYAQKFKGKATLTTDKYSSTAYMQLSSLASEDSAVYYCARWGYAYDIDNWGQGTLVTVSS
VL: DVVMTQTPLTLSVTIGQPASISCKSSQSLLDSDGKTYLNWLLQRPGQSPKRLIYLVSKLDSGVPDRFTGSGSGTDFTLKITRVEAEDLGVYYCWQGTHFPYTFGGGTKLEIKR
notes: Naked antibody used as FACS staining reagent and detected with an anti-human Alexa 488 conjugate; also called anti-ETBR antibody; chimeric 5E9
Take B1: the binding result is “binds”.

B2: hu5E9.v1 (antibody, human IgG1, kappa, V domains shown)
VH: EVQLVESGGGLVQPGGSLRLSCAASGYTFTSYWMQWVRQAPGKGLEWIGTIYPGDGDTSYAQKFKGRATLSTDKSKNTAYLQMNSLRAEDTAVYYCARWGYAYDIDNWGQGTLVTVSS
VL: DIQMTQSPSSLSASVGDRVTITCKSSQSLLDSDGKTYLNWLQQKPGKAPKRLIYLVSKLDSGVPSRFSGSGSGTDFTLTISSLQPEDFATYYCWQGTHFPYTFGQGTKVEIKR
notes: Naked antibody used as FACS staining reagent and detected with an anti-human Alexa 488 conjugate; also called anti-ETBR antibody; humanized 5E9 version 1
For B2, the binding result is on record as “binds”.
